Data reported in US20250026850A1 (TRISHULA THERAPEUTICS, published 2025).
Numbering of substitutions follows the chain as printed.

B1: 31393 (antibody, V domains shown)
VH: QVQLVQSGAEVKKPGSSVKVSCKASGGTFESYGISWVRQAPGQGLEWMGSIIPEFGIANYAQKFQGRVTITADESTSTTYMELSSLRSEDTAVYYCARESGGYRDHRLDVWGQGTMVTVSS
VL: EIVMTQSPATLSVSPGERATLSCRASQSVGSNLAWYQQKPGQAPRLLIYGASTRATGIPARFSGSGSGTEFTLTISSLQSEDFAVYYCQQYLLWPLTFGGGTKVEIKR
B2: 31861 (antibody, V domains shown)
VH: B1 VH with E30G, T79A, G102T
VL: B1 VL
B3: 31873 (antibody, V domains shown)
VH: B1 VH with E30S, S31K, T79A, D109G
VL: B1 VL with T56S
B4: 29852 (antibody, V domains shown)
VH: QVQLVQSGAEVKKPGSSVKVSCKASGGTFSAMAISWVRQAPGQGLEWMGGILPIAGTANYAQKFQGRVTITADESTSTAYMELSSLRSEDTAVYYCARGGAKYASTYGMDVWGQGTTVTVSS
VL: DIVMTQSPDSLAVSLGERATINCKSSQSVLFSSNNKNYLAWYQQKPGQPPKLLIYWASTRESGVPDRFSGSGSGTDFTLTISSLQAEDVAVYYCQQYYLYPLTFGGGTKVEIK
B5: 28347 (antibody, V domains shown)
VH: B4 VH with A31S, M32L, L52I, A55F, S77N
VL: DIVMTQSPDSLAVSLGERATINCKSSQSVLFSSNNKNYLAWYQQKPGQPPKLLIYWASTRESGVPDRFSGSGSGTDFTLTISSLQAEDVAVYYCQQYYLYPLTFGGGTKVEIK
B6: 29857 (antibody, V domains shown)
VH: B4 VH with A31W, M32L, L52I, I54R, A55G
VL: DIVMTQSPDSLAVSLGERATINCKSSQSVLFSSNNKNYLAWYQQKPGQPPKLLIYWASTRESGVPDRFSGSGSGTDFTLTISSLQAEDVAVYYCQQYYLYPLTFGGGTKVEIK
B7: 29851 (antibody, V domains shown)
VH: B4 VH with S30A, A31S, M32L, A55F, T57E
VL: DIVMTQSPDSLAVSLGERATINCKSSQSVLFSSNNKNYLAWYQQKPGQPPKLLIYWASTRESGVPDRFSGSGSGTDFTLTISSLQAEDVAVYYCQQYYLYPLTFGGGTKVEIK
B8: 31432 (antibody, V domains shown)
VH: B4 VH with A31H, M32T, A55G, T106Q, Y107L
VL: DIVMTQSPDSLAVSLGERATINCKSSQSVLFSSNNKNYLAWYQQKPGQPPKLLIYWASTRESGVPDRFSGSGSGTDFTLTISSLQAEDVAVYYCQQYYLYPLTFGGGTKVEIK
B9: 31436 (antibody, V domains shown)
VH: B4 VH with A31L, M32L, S105V, T106G
VL: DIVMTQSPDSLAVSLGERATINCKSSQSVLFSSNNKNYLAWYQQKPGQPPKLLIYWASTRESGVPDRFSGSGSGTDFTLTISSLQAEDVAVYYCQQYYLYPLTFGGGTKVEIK
B10: 31437 (antibody, V domains shown)
VH: B4 VH with S16A, S30Q, A31S, M32L, A55G, S105G, T106R
VL: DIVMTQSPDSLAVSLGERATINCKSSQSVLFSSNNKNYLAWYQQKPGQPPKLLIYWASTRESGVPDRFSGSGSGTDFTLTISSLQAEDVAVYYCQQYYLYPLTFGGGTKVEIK
B11: 31901 (antibody, V domains shown)
VH: QVQLVQSGAEVKKPGSSVKVSCKASGGTFSSLPISWVRQAPGQGLEWMGGIGFGTANYAQKFQGRVTITADESTSTAYMELSSLRSEDTAVYYCARGGAKYAGRYGMDVWGQGTTVTVSS
VL: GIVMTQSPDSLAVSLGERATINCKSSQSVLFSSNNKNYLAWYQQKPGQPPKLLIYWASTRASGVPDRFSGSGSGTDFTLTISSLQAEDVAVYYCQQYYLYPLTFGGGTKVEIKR
B12: 31905 (antibody, V domains shown)
VH: B11 VH with S30P, L32N, P33A, G103R, R104T
VL: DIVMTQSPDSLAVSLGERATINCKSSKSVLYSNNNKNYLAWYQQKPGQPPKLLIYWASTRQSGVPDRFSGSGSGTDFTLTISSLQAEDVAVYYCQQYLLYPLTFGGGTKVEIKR

Target: T1, rhCD39-ECD-His (R&D Systems) (human, UniProt P49961 38-478)
T1 construct: Bought protein; that entry runs on through the C-terminal transmembrane and cytoplasmic residues; also called recombinant human CD39 extracellular domain; soluble recombinant human CD39 (ENTDP1) ECD; not shown: His tag
T1 sequence: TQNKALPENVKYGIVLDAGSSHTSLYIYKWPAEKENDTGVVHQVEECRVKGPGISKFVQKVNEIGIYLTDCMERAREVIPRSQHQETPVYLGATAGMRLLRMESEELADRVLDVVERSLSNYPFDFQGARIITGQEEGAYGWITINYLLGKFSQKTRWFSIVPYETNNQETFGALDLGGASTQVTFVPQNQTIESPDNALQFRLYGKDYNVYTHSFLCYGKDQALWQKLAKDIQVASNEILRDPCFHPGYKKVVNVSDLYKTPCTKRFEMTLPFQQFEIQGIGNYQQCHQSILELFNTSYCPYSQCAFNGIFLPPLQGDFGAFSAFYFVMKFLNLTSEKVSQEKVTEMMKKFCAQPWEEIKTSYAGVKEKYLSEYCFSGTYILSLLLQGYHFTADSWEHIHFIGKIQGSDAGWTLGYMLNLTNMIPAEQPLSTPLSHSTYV
Experiment: BLI (Octet), IgG on anti-human Fc sensor, rhCD39-ECD-His 10-300 nM, 1:1 fit
Protocol: The kinetic data was globally fit with a simple 1:1 Langmuir binding model to yield on-rate (kon) and off-rate (koff) values. The equilibrium dissociation constants (KD) were calculated from the kon and koff values.
Binding kinetics were measured using the Octet Red96 system (ForteBio) at 25° C. in running buffer (1× Pall ForteBio Kinetics Buffer diluted into PBS or Tris pH 7.4). […] After a short baseline step in running buffer, the sensors were exposed to varying concentrations (10-300 nM) of rhCD39-ECD-His (R&D Systems) for the association step. Dissociation of the complex was monitored upon exposure of the sensors to running buffer once again. Data was processed using ForteBio Octet software with baseline subtraction, global fit and 1:1 binding model to obtain association and dissociation rates. KD was calculated from the ratio of kd to kₐ.

Compared with B1, B2 is 1.7-fold higher in Kd: 0.672 nM for the first, 1.16 nM for the second.

First: B3
Second: B4
The Kd of the first is 3.5-fold higher: 0.922 nM for the first, 0.266 nM for the second. The second binds more tightly here.

First: B5
Second: B6
The Kd of the first is 12-fold higher: 9.05 nM for the first, 0.76 nM for the second. The second binds more tightly here.

B7 and B8 are within 1.5-fold of each other in Kd: 1.23 nM for the first, 1.07 nM for the second.

Compared with B9, B10 is 1.7-fold lower in Kd: 0.924 nM for the first, 0.558 nM for the second. The second binds more tightly here.

First: B11
Second: B12
The Kd of the first is 1.8-fold higher: 0.128 nM for the first, 0.0731 nM for the second. The second binds more tightly here.

B1 and B2 are within 1.5-fold of each other in koff: 0.0002 s⁻¹ for the first, 0.000286 s⁻¹ for the second.

Going from B3 to B4, the koff falls from 0.000286 s⁻¹ to 0.000134 s⁻¹ (2.1-fold).

First: B5
Second: B6
The koff of the first is 36-fold higher: 0.00815 s⁻¹ for the first, 0.000229 s⁻¹ for the second.

B7 and B8 are within 1.5-fold of each other in koff: 0.000385 s⁻¹ for the first, 0.000286 s⁻¹ for the second.

B9 and B10 are within 1.5-fold of each other in koff: 0.000243 s⁻¹ for the first, 0.000213 s⁻¹ for the second.

B11 and B12 are within 1.5-fold of each other in koff: 0.000132 s⁻¹ for the first, 0.000111 s⁻¹ for the second.

B1 and B2 are within 1.5-fold of each other in kon: 298000 M⁻¹ s⁻¹ for the first, 246000 M⁻¹ s⁻¹ for the second.

Compared with B3, B4 is 1.6-fold higher in kon: 311000 M⁻¹ s⁻¹ for the first, 503000 M⁻¹ s⁻¹ for the second.

Compared with B5, B6 is 3-fold lower in kon: 901000 M⁻¹ s⁻¹ for the first, 302000 M⁻¹ s⁻¹ for the second.

B7 and B8 are within 1.5-fold of each other in kon: 313000 M⁻¹ s⁻¹ for the first, 268000 M⁻¹ s⁻¹ for the second.

B9 and B10 are within 1.5-fold of each other in kon: 263000 M⁻¹ s⁻¹ for the first, 382000 M⁻¹ s⁻¹ for the second.

B11 and B12 are within 1.5-fold of each other in kon: 1.03e+06 M⁻¹ s⁻¹ for the first, 1.52e+06 M⁻¹ s⁻¹ for the second.

Target: T2, human CD39 on cells (human, UniProt P49961 1-510)
T2 construct: One molecule for all cells that carry human CD39; the cell is named under assay; also called hCD39; cellular CD39
T2 sequence: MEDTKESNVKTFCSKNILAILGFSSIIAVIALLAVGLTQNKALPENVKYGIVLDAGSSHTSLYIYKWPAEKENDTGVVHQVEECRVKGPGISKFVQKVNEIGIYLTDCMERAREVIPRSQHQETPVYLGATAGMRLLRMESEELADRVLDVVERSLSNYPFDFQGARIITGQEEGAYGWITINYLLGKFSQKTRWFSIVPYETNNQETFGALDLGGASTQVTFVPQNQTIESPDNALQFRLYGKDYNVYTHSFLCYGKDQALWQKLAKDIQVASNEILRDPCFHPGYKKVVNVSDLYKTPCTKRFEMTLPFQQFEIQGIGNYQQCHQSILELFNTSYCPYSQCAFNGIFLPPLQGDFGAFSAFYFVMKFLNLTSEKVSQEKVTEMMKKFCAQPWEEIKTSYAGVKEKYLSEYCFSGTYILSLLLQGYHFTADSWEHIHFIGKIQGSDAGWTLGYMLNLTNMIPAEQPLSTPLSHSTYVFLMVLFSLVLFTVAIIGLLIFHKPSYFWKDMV
Experiment: flow cytometry on MEL-28 cells, anti-human IgG secondary, Prism fit; unit from the x axis
Protocol: (§1) Cells were washed 3 times in FACS buffer (PS, 2% FBS, and 2 mM EDTA) and next incubated with secondary antibody (goat anti-human IgG Southern Biotech) at 1:100 for 30 minutes at 4 degrees C. Cells were washed, resuspended in FACS buffer, and analyzed for binding by flow cytometry analysis on BD Celesta.

Compared with B10, B11 is 3.6-fold lower in EC50: 0.368 µg/mL for the first, 0.102 µg/mL for the second.

B12 was tested, and the EC50 was 0.159 µg/mL.

Target: T2, human CD39 on cells
Experiment: flow cytometry on purified human B cells, anti-human IgG-PE, Prism fit; unit from the x axis
Protocol: (§2) EC50 was calculated using GrapPad Prism software. […] B cells were gated using FlowJo software and ECsos were calculated using GraphPad Prism.
(§3) B cells were isolated from human donor leukopak using EasySep B cell isolation kit ([…] Technologies). Cyno monocytes were purified from fresh cyno blood using NHP CD14 positive selection kit (Miltenyi) and flow through was collected and stained with CD4, CD8, CD20, CD16, and CD3 antibodies (BD). […] Cell were washed 3 times in FACS buffer (PS, 2% FBS, and 2 mM EDTA) and incubated with secondary antibody (mouse anti-human IgG southern biotech) at 1:100 for 30 minutes at 4 degrees C. Cells were washed 2 times in FACS buffer and resuspended in FACS buffer and analyzed on BD Celesta.

Going from B10 to B11, the EC50 falls from 0.109 µg/mL to 0.0438 µg/mL (2.5-fold).

B12 gave an EC50 of 0.0805 µg/mL.

Target: T2, human CD39 on cells
Experiment: flow cytometry, 100 nM IgG, hCD39-CHO cells; MFI ratio to parental CHO
Protocol: (§4) 100 nanomolar IgGs (each antibody is indicated as a unique clone number in the FIG.) were incubated at […] 30 minutes on ice in phosphate buffered saline (PBS) with parental CHO cells or CHO cells engineered to express either human or cynomolgus macaque (Macaca fascicularis) CD39 (CHO CD39 cells). Cells were then washed with ice cold PBS and incubated with a fluorescently labeled goat-anti-human IgG for 20 minutes on ice. Cells were washed and resuspended in ice cold PBS prior to analysis by flow cytrometry.

First: B1
Second: B2
The “Cell Binding (FOB)” value of the first is lower: 1060 FOB for the first, 1430 FOB for the second.

Going from B3 to B4, the “Cell Binding (FOB)” value falls from 1320 FOB to 337 FOB.

Compared with B5, B6 is lower in “Cell Binding (FOB)” value: 1020 FOB for the first, 224 FOB for the second.

Going from B7 to B8, the “Cell Binding (FOB)” value rises from 129 FOB to 1170 FOB.

Going from B9 to B10, the “Cell Binding (FOB)” value falls from 1320 FOB to 1290 FOB.

Compared with B11, B12 is lower in “Cell Binding (FOB)” value: 1110 FOB for the first, 1080 FOB for the second.

Target: T3, cynomolgus macaque (Macaca fascicularis) CD39 on cells (cynomolgus macaque (Macaca fascicularis), UniProt P49961 7-510 (human entry))
T3 construct: CHO cells engineered to express cyno CD39, or primary cyno B cells and monocytes; also called cyno CD39; cCD39
T3 chain: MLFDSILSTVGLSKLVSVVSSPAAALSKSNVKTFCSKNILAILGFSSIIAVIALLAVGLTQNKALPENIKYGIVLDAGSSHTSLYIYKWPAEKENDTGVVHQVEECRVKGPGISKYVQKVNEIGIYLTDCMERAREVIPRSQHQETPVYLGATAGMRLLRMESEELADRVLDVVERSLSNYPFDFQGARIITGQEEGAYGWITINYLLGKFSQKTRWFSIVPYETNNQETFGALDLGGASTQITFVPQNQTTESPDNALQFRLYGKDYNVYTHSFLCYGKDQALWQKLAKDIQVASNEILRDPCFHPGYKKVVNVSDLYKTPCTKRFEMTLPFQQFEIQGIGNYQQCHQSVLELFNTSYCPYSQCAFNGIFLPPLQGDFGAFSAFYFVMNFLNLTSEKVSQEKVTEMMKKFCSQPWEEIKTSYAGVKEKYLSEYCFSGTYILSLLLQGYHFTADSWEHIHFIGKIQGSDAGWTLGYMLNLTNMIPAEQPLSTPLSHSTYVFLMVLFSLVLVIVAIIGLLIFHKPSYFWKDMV
Experiment: flow cytometry on cyno PBMC, gated B cells, anti-human IgG PE, Prism fit; unit from the x axis
Protocol: as §2, §3

B10 and B11 are within 1.5-fold of each other in EC50: 0.108 µg/mL for the first, 0.124 µg/mL for the second.

B12 gave an EC50 of 0.124 µg/mL.

Target: T2, human CD39 on cells
Experiment: flow cytometry on 721 cells, anti-human IgG secondary, Prism fit; unit from the x axis
Protocol: as §1

Going from B10 to B11, the EC50 falls from 7.46 µg/mL to 0.851 µg/mL (8.8-fold).

With B12 the EC50 was 2.63 µg/mL.

Target: T2, human CD39 on cells
Experiment: flow cytometry on purified human CD4+CD25+CD127dim Treg cells, anti-human IgG secondary, Prism fit; unit from the x axis
Protocol: Treg cells were isolated from human donor leukopak using CD4⁺CD25⁺CD127^dim regulatory T cell isolation kit II (Miltenyi). […] Cell were washed 3 times in FACS buffer (PS, 2% FBS, and 2 mM EDTA) and incubated with secondary antibody (mouse anti-human IgG southern biotech) at 1:100 for 30 minutes at 4 degrees C. Cells were washed 2 times in FACS buffer, resuspended in FACS buffer and analyzed on BD Fortessa.

B11 and B12 are within 1.5-fold of each other in EC50: 0.519 nM for the first, 0.735 nM for the second.

Target: T3, cynomolgus macaque (Macaca …)
Experiment: flow cytometry, 100 nM IgG, cCD39-CHO cells; MFI ratio to parental CHO
Protocol: as §4

Compared with B1, B2 is higher in “Cell Binding (FOB)” value: 2960 FOB for the first, 5480 FOB for the second.

Compared with B3, B4 is lower in “Cell Binding (FOB)” value: 5080 FOB for the first, 1420 FOB for the second.

Going from B5 to B6, the “Cell Binding (FOB)” value falls from 1340 FOB to 1140 FOB.

First: B7
Second: B8
The “Cell Binding (FOB)” value of the first is lower: 398 FOB for the first, 5700 FOB for the second.

First: B9
Second: B10
The “Cell Binding (FOB)” value of the first is lower: 3570 FOB for the first, 3640 FOB for the second.

Going from B11 to B12, the “Cell Binding (FOB)” value rises from 4660 FOB to 4940 FOB.
